Earlier results as cited in publication PMC6611588, “Quantitative high-throughput screening assays for the discovery and development of SIRPα-CD47 interaction inhibitors” (PLoS ONE, 2019).
Values joined by “and” are separate entries in the source; they are usually repeats but may differ in a detail not shown here. Equal entries are not always repeated.

Biological target: CD47 (Homo sapiens) (UniProt Q08722)
Details: cited from earlier work

SIRPα, sequence (P78324 31-373): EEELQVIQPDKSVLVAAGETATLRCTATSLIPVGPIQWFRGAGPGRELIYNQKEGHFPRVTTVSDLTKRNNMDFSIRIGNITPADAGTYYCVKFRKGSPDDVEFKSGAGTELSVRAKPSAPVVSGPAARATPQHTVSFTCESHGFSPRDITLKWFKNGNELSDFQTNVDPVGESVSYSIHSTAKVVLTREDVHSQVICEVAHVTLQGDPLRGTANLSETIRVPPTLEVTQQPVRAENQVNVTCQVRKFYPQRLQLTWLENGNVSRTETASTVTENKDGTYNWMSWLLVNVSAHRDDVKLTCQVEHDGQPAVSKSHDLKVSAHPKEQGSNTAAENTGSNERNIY
CD47 (Homo sapiens), sequence (Q08722 19-323): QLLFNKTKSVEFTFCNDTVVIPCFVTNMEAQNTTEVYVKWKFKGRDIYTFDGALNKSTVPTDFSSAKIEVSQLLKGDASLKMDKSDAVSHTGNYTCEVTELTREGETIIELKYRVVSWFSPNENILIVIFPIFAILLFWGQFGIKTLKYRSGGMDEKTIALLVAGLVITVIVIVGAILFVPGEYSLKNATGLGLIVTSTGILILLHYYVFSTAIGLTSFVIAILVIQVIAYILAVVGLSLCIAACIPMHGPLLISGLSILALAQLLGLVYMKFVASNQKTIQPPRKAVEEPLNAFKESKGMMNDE

## SIRPα (from UniProt P78324)
  Kd: 300 nM and 279 nM
